Test results taken from the RNAGym collection of RNA variant scans (doi:10.1021/acssynbio.7b00057).

B1: Pistol ribozyme (parent)
chain: GGGUCGUUGUUCCAUAAUCGCGUGGAUAUGGCACGCAAGUUUCUACCGGGCACCGUAAAUGUCCGACUGGAGCCGUUCGGGCGGCUAUAAACAGACCUCAGGCCCGAAGCGUGGCGGCACCUGCCGCCGGUGGUAAAAAAGAUCGGAAGAGCACACGUCU

Variants of: B1
Assay: aptazyme ON/OFF ratio, guanine; higher = stronger switching; co-transcriptional cleavage with and without guanine

Variant | aptazyme ON/OFF ratio
GGGUCGAAAAUUGAUAAUCGCGUGGAUAUGGCACGCAAGUUUCUACCGGGCACCGUAAAUGUCCGACUGGAGCCGUUCGGGCGGCUAUAAACAGACCUCAGGCCCGAAGCGUGGCGGCACCUGCCGCCGGUGGUAAAAAAGAUCGGAAGAGCACACGUCU [U7A U8A G9A U10A C12U C13G] | 1.19
GGGUCGAAAAUUAAUAAUCGCGUGGAUAUGGCACGCAAGUUUCUACCGGGCACCGUAAAUGUCCGACUGGAGCCGUUCGGGCGGCUAUAAACAGACCUCAGGCCCGAAGCGUGGCGGCACCUGCCGCCGGUGGUAAAAAAGAUCGGAAGAGCACACGUCU [U7A U8A G9A U10A C12U C13A] | 1.27
GGGUCGAAAAUUUAUAAUCGCGUGGAUAUGGCACGCAAGUUUCUACCGGGCACCGUAAAUGUCCGACUGGAGCCGUUCGGGCGGCUAUAAACAGACCUCAGGCCCGAAGCGUGGCGGCACCUGCCGCCGGUGGUAAAAAAGAUCGGAAGAGCACACGUCU [U7A U8A G9A U10A C12U C13U] | 1.47
GGGUCGAAAAAUAAUAAUCGCGUGGAUAUGGCACGCAAGUUUCUACCGGGCACCGUAAAUGUCCGACUGGAGCCGUUCGGGCGGCUAUAAACAGACCUCAGGCCCGAAGCGUGGCGGCACCUGCCGCCGGUGGUAAAAAAGAUCGGAAGAGCACACGUCU [U7A U8A G9A U10A U11A C12U C13A] | 1.17
GGGUCGAAAAAUUAUAAUCGCGUGGAUAUGGCACGCAAGUUUCUACCGGGCACCGUAAAUGUCCGACUGGAGCCGUUCGGGCGGCUAUAAACAGACCUCAGGCCCGAAGCGUGGCGGCACCUGCCGCCGGUGGUAAAAAAGAUCGGAAGAGCACACGUCU [U7A U8A G9A U10A U11A C12U C13U] | 1.14
GGGUCGAAAAAUGAUAAUCGCGUGGAUAUGGCACGCAAGUUUCUACCGGGCACCGUAAAUGUCCGACUGGAGCCGUUCGGGCGGCUAUAAACAGACCUCAGGCCCGAAGCGUGGCGGCACCUGCCGCCGGUGGUAAAAAAGAUCGGAAGAGCACACGUCU [U7A U8A G9A U10A U11A C12U C13G] | 1.23
GGGUCGAAAAUCUAUAAUCGCGUGGAUAUGGCACGCAAGUUUCUACCGGGCACCGUAAAUGUCCGACUGGAGCCGUUCGGGCGGCUAUAAACAGACCUCAGGCCCGAAGCGUGGCGGCACCUGCCGCCGGUGGUAAAAAAGAUCGGAAGAGCACACGUCU [U7A U8A G9A U10A C13U] | 1.17
GGGUCGAAAAUCGAUAAUCGCGUGGAUAUGGCACGCAAGUUUCUACCGGGCACCGUAAAUGUCCGACUGGAGCCGUUCGGGCGGCUAUAAACAGACCUCAGGCCCGAAGCGUGGCGGCACCUGCCGCCGGUGGUAAAAAAGAUCGGAAGAGCACACGUCU [U7A U8A G9A U10A C13G] | 1.05
GGGUCGAAAAUCAAUAAUCGCGUGGAUAUGGCACGCAAGUUUCUACCGGGCACCGUAAAUGUCCGACUGGAGCCGUUCGGGCGGCUAUAAACAGACCUCAGGCCCGAAGCGUGGCGGCACCUGCCGCCGGUGGUAAAAAAGAUCGGAAGAGCACACGUCU [U7A U8A G9A U10A C13A] | 1.12
GGGUCGAAAUUCGAUAAUCGCGUGGAUAUGGCACGCAAGUUUCUACCGGGCACCGUAAAUGUCCGACUGGAGCCGUUCGGGCGGCUAUAAACAGACCUCAGGCCCGAAGCGUGGCGGCACCUGCCGCCGGUGGUAAAAAAGAUCGGAAGAGCACACGUCU [U7A U8A G9A C13G] | 1.11
GGGUCGAAAUUCUAUAAUCGCGUGGAUAUGGCACGCAAGUUUCUACCGGGCACCGUAAAUGUCCGACUGGAGCCGUUCGGGCGGCUAUAAACAGACCUCAGGCCCGAAGCGUGGCGGCACCUGCCGCCGGUGGUAAAAAAGAUCGGAAGAGCACACGUCU [U7A U8A G9A C13U] | 1.22
GGGUCGAAAUUCAAUAAUCGCGUGGAUAUGGCACGCAAGUUUCUACCGGGCACCGUAAAUGUCCGACUGGAGCCGUUCGGGCGGCUAUAAACAGACCUCAGGCCCGAAGCGUGGCGGCACCUGCCGCCGGUGGUAAAAAAGAUCGGAAGAGCACACGUCU [U7A U8A G9A C13A] | 1.11
GGGUCGAAAAAAAAUAAUCGCGUGGAUAUGGCACGCAAGUUUCUACCGGGCACCGUAAAUGUCCGACUGGAGCCGUUCGGGCGGCUAUAAACAGACCUCAGGCCCGAAGCGUGGCGGCACCUGCCGCCGGUGGUAAAAAAGAUCGGAAGAGCACACGUCU [U7A U8A G9A U10A U11A C12A C13A] | 1.35
GGGUCGAAAAAAUAUAAUCGCGUGGAUAUGGCACGCAAGUUUCUACCGGGCACCGUAAAUGUCCGACUGGAGCCGUUCGGGCGGCUAUAAACAGACCUCAGGCCCGAAGCGUGGCGGCACCUGCCGCCGGUGGUAAAAAAGAUCGGAAGAGCACACGUCU [U7A U8A G9A U10A U11A C12A C13U] | 1.34
GGGUCGAAAAAAGAUAAUCGCGUGGAUAUGGCACGCAAGUUUCUACCGGGCACCGUAAAUGUCCGACUGGAGCCGUUCGGGCGGCUAUAAACAGACCUCAGGCCCGAAGCGUGGCGGCACCUGCCGCCGGUGGUAAAAAAGAUCGGAAGAGCACACGUCU [U7A U8A G9A U10A U11A C12A C13G] | 1.21
GGGUCGAAAAUAAAUAAUCGCGUGGAUAUGGCACGCAAGUUUCUACCGGGCACCGUAAAUGUCCGACUGGAGCCGUUCGGGCGGCUAUAAACAGACCUCAGGCCCGAAGCGUGGCGGCACCUGCCGCCGGUGGUAAAAAAGAUCGGAAGAGCACACGUCU [U7A U8A G9A U10A C12A C13A] | 1.11
GGGUCGAAAAUAUAUAAUCGCGUGGAUAUGGCACGCAAGUUUCUACCGGGCACCGUAAAUGUCCGACUGGAGCCGUUCGGGCGGCUAUAAACAGACCUCAGGCCCGAAGCGUGGCGGCACCUGCCGCCGGUGGUAAAAAAGAUCGGAAGAGCACACGUCU [U7A U8A G9A U10A C12A C13U] | 1.09
GGGUCGAAAAUAGAUAAUCGCGUGGAUAUGGCACGCAAGUUUCUACCGGGCACCGUAAAUGUCCGACUGGAGCCGUUCGGGCGGCUAUAAACAGACCUCAGGCCCGAAGCGUGGCGGCACCUGCCGCCGGUGGUAAAAAAGAUCGGAAGAGCACACGUCU [U7A U8A G9A U10A C12A C13G] | 1.23

Variant | aptazyme ON/OFF ratio
GGGUCGAAAAAUCAUAAUCGCGUGGAUAUGGCACGCAAGUUUCUACCGGGCACCGUAAAUGUCCGACUGGAGCCGUUCGGGCGGCUAUAAACAGACCUCAGGCCCGAAGCGUGGCGGCACCUGCCGCCGGUGGUAAAAAAGAUCGGAAGAGCACACGUCU [U7A U8A G9A U10A U11A C12U] | 1.17
GGGUCGAAAAAACAUAAUCGCGUGGAUAUGGCACGCAAGUUUCUACCGGGCACCGUAAAUGUCCGACUGGAGCCGUUCGGGCGGCUAUAAACAGACCUCAGGCCCGAAGCGUGGCGGCACCUGCCGCCGGUGGUAAAAAAGAUCGGAAGAGCACACGUCU [U7A U8A G9A U10A U11A C12A] | 1.26
GGGUCGAAAAAGCAUAAUCGCGUGGAUAUGGCACGCAAGUUUCUACCGGGCACCGUAAAUGUCCGACUGGAGCCGUUCGGGCGGCUAUAAACAGACCUCAGGCCCGAAGCGUGGCGGCACCUGCCGCCGGUGGUAAAAAAGAUCGGAAGAGCACACGUCU [U7A U8A G9A U10A U11A C12G] | 1.27
GGGUCGAAAAACGAUAAUCGCGUGGAUAUGGCACGCAAGUUUCUACCGGGCACCGUAAAUGUCCGACUGGAGCCGUUCGGGCGGCUAUAAACAGACCUCAGGCCCGAAGCGUGGCGGCACCUGCCGCCGGUGGUAAAAAAGAUCGGAAGAGCACACGUCU [U7A U8A G9A U10A U11A C13G] | 1.17
GGGUCGAAAAACUAUAAUCGCGUGGAUAUGGCACGCAAGUUUCUACCGGGCACCGUAAAUGUCCGACUGGAGCCGUUCGGGCGGCUAUAAACAGACCUCAGGCCCGAAGCGUGGCGGCACCUGCCGCCGGUGGUAAAAAAGAUCGGAAGAGCACACGUCU [U7A U8A G9A U10A U11A C13U] | 1.3
GGGUCGAAAAACAAUAAUCGCGUGGAUAUGGCACGCAAGUUUCUACCGGGCACCGUAAAUGUCCGACUGGAGCCGUUCGGGCGGCUAUAAACAGACCUCAGGCCCGAAGCGUGGCGGCACCUGCCGCCGGUGGUAAAAAAGAUCGGAAGAGCACACGUCU [U7A U8A G9A U10A U11A C13A] | 1.16
GGGUCGAAAUUUUAUAAUCGCGUGGAUAUGGCACGCAAGUUUCUACCGGGCACCGUAAAUGUCCGACUGGAGCCGUUCGGGCGGCUAUAAACAGACCUCAGGCCCGAAGCGUGGCGGCACCUGCCGCCGGUGGUAAAAAAGAUCGGAAGAGCACACGUCU [U7A U8A G9A C12U C13U] | 1.17
GGGUCGAAAAACCAUAAUCGCGUGGAUAUGGCACGCAAGUUUCUACCGGGCACCGUAAAUGUCCGACUGGAGCCGUUCGGGCGGCUAUAAACAGACCUCAGGCCCGAAGCGUGGCGGCACCUGCCGCCGGUGGUAAAAAAGAUCGGAAGAGCACACGUCU [U7A U8A G9A U10A U11A] | 1.15
GGGUCGAAAAUCCAUAAUCGCGUGGAUAUGGCACGCAAGUUUCUACCGGGCACCGUAAAUGUCCGACUGGAGCCGUUCGGGCGGCUAUAAACAGACCUCAGGCCCGAAGCGUGGCGGCACCUGCCGCCGGUGGUAAAAAAGAUCGGAAGAGCACACGUCU [U7A U8A G9A U10A] | 1.46
GGGUCGAAAAUGCAUAAUCGCGUGGAUAUGGCACGCAAGUUUCUACCGGGCACCGUAAAUGUCCGACUGGAGCCGUUCGGGCGGCUAUAAACAGACCUCAGGCCCGAAGCGUGGCGGCACCUGCCGCCGGUGGUAAAAAAGAUCGGAAGAGCACACGUCU [U7A U8A G9A U10A C12G] | 1.24
GGGUCGAAAAUACAUAAUCGCGUGGAUAUGGCACGCAAGUUUCUACCGGGCACCGUAAAUGUCCGACUGGAGCCGUUCGGGCGGCUAUAAACAGACCUCAGGCCCGAAGCGUGGCGGCACCUGCCGCCGGUGGUAAAAAAGAUCGGAAGAGCACACGUCU [U7A U8A G9A U10A C12A] | 1.28
GGGUCGAAAAUUCAUAAUCGCGUGGAUAUGGCACGCAAGUUUCUACCGGGCACCGUAAAUGUCCGACUGGAGCCGUUCGGGCGGCUAUAAACAGACCUCAGGCCCGAAGCGUGGCGGCACCUGCCGCCGGUGGUAAAAAAGAUCGGAAGAGCACACGUCU [U7A U8A G9A U10A C12U] | 1.23
GGGUCGAAAAAGUAUAAUCGCGUGGAUAUGGCACGCAAGUUUCUACCGGGCACCGUAAAUGUCCGACUGGAGCCGUUCGGGCGGCUAUAAACAGACCUCAGGCCCGAAGCGUGGCGGCACCUGCCGCCGGUGGUAAAAAAGAUCGGAAGAGCACACGUCU [U7A U8A G9A U10A U11A C12G C13U] | 1.13
GGGUCGAAAAAGAAUAAUCGCGUGGAUAUGGCACGCAAGUUUCUACCGGGCACCGUAAAUGUCCGACUGGAGCCGUUCGGGCGGCUAUAAACAGACCUCAGGCCCGAAGCGUGGCGGCACCUGCCGCCGGUGGUAAAAAAGAUCGGAAGAGCACACGUCU [U7A U8A G9A U10A U11A C12G C13A] | 1.14
GGGUCGAAAAAGGAUAAUCGCGUGGAUAUGGCACGCAAGUUUCUACCGGGCACCGUAAAUGUCCGACUGGAGCCGUUCGGGCGGCUAUAAACAGACCUCAGGCCCGAAGCGUGGCGGCACCUGCCGCCGGUGGUAAAAAAGAUCGGAAGAGCACACGUCU [U7A U8A G9A U10A U11A C12G C13G] | 1.28
GGGUCGAAAAUGAAUAAUCGCGUGGAUAUGGCACGCAAGUUUCUACCGGGCACCGUAAAUGUCCGACUGGAGCCGUUCGGGCGGCUAUAAACAGACCUCAGGCCCGAAGCGUGGCGGCACCUGCCGCCGGUGGUAAAAAAGAUCGGAAGAGCACACGUCU [U7A U8A G9A U10A C12G C13A] | 1.24
GGGUCGAAAAUGUAUAAUCGCGUGGAUAUGGCACGCAAGUUUCUACCGGGCACCGUAAAUGUCCGACUGGAGCCGUUCGGGCGGCUAUAAACAGACCUCAGGCCCGAAGCGUGGCGGCACCUGCCGCCGGUGGUAAAAAAGAUCGGAAGAGCACACGUCU [U7A U8A G9A U10A C12G C13U] | 1.28
GGGUCGAAAAUGGAUAAUCGCGUGGAUAUGGCACGCAAGUUUCUACCGGGCACCGUAAAUGUCCGACUGGAGCCGUUCGGGCGGCUAUAAACAGACCUCAGGCCCGAAGCGUGGCGGCACCUGCCGCCGGUGGUAAAAAAGAUCGGAAGAGCACACGUCU [U7A U8A G9A U10A C12G C13G] | 1.15
